Source: patent publication US20100093602A1 (CASE WESTERN RESERVE UNIVERSITY, published 2010)

B1: human N-cadherin-Fc (R&D Systems) (Fc fusion, UniProt P19022 160-724, looked up)
chain: DWVIPPINLPENSRGPFPQELVRIRSDRDKNLSLRYSVTGPGADQPPTGIFIINPISGQLSVTKPLDREQIARFHLRAHAVDINGNQVENPIDIVINVIDMNDNRPEFLHQVWNGTVPEGSKPGTYVMTVTAIDADDPNALNGMLRYRIVSQAPSTPSPNMFTINNETGDIITVAAGLDREKVQQYTLIIQATDMEGNPTYGLSNTATAVITVTDVNDNPPEFTAMTFYGEVPENRVDIIVANLTVTDKDQPHTPAWNAVYRISGGDPTGRFAIQTDPNSNDGLVTVVKPIDFETNRMFVLTVAAENQVPLAKGIQHPPQSTATVSVTVIDVNENPYFAPNPKIIRQEEGLHAGTMLTTFTAQDPDRYMQQNIRYTKLSDPANWLKIDPVNGQITTIAVLDRESPNVKNNIYNATFLASDNGIPPMSGTGTLQIYLLDINDNAPQVLPQEAETCETPDPNSINITALDYDIDPNAGPFAFDLPLSPVTIKRNWTITRLNGDFAQLNLKIKFLEAGIYEVPIIITDSGNPPKSNISILRVKVCQCDSNGDCTDVDRIVGAGLGTGA
notes: also called N-cadherin substrate; purified N-cadherin substrate; not shown: Fc part of the bought fusion

What was measured:
[1] = molecular target: T1, N-cadherin expressed on human glioblastoma LN-229 cells (human, UniProt P19022 160-906); experiment: cell adhesion assay: LN-229 cells on spots of N-cadherin-Fc on nitrocellulose-coated dishes; this is the pair whose adhesion ADH-1 reduces
T1 construct: whole, on cells
T1 sequence (looked up): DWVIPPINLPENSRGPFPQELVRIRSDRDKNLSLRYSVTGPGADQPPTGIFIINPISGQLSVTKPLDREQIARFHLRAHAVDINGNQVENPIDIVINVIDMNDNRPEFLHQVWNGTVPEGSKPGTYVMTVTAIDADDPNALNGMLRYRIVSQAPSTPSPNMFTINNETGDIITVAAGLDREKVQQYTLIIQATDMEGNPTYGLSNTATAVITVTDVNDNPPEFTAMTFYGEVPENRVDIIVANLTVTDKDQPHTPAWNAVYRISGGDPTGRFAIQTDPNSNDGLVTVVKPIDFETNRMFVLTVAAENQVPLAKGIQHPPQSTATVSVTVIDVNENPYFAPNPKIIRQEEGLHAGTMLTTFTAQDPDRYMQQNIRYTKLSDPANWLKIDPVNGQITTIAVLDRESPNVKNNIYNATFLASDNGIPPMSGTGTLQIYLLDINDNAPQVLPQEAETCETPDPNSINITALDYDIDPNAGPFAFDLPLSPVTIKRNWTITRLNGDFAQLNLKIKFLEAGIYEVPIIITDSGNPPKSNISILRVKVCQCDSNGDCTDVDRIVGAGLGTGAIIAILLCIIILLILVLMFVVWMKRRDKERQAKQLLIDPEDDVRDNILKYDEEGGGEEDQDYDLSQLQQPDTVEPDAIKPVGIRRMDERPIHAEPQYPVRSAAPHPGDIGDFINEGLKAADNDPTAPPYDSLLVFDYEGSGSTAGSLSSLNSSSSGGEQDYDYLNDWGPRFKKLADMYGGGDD
Experimental: Sterile 35 mm tissue culture dishes were coated with nitrocellulose in methanol and allowed to dry. Distinct spots, containing 50 ng of either purified Laminin (Sigma) or N-cadherin-Fc (R&D Systems), were made by spotting 10 μl of protein solution on the nitrocellulose-coated tissue culture dishes. Each dish contained two distinct spots of both Laminin and N-cadherin-Fc. After a 20-min incubation at room temperature, the protein solutions were aspirated. Remaining binding sites on the nitrocellulose were blocked with 2% BSA in PBS, and the dishes were rinsed with DMEM (Invitrogen).
4×10⁵ cells were added to each tissue culture dish in the presence of N-cadherin peptidomimetic small molecules, reconstituted in either DMSO or 0.3% cyclodextrin, and diluted in DMEM supplemented with 10% fetal bovine serum (HyClone). In the control experiments, either DMSO or cyclodextrin was added with LN-229 cells in the absence of the peptidomimetic small molecules. The cells were allowed to adhere to the protein substrate for 2 hours at 37° C., 5% CO₂. After incubation, the medium was removed and the tissue culture dishes were rinsed once with PBS to remove any unattached cells. Cells were fixed with 4% PFA, 0.01% glutaraldehyde in PEM buffer for 10 minutes at room temperature and rinsed once in PBS prior to imaging.

[2] = molecular target: B1; experiment: cell-based or functional assay

**Q.** Does B1 bind [1]?
**A.** Result: binds

**Q.** For Ac-CHAVC-NH2 (also: cyclic peptide, cyclising bond not given here) [ADH-1 (short cyclic HAV peptide N-Ac-CHAVC-NH2)], which “IC50 for inhibition of RGC neurite outgrowth” value [2] is on record?
**A.** The value was 2.33 mM.
